{"source": "paper PMC3704941", "key": {"[1]": {"target": "truncated form of the monomeric type IV pilin from P. aeruginosa strain K122-4 [pilA (Δ1-28); ΔK122] (Pseudomonas aeruginosa strain K122-4)", "assay": "SEC-MALS; silica-based column, 10 nm pore size, 10 mM Tris pH 7.4; 1 mg·mL^-1 ΔK122 incubated with MPD for 24 hours; Peaks 2-4"}, "[2]": {"target": "truncated form of the monomeric type IV pilin from P. aeruginosa strain K122-4 [pilA (Δ1-28); ΔK122] (Pseudomonas aeruginosa strain K122-4)", "assay": "SEC-MALS; silica-based column, 10 nm pore size, 10 mM Tris pH 7.4; 1 mg·mL^-1 ΔK122 incubated with MPD for 72 hours; relative peak areas"}, "[3]": {"target": "truncated form of the monomeric type IV pilin from P. aeruginosa strain K122-4 [pilA (Δ1-28); ΔK122] (Pseudomonas aeruginosa strain K122-4)", "assay": "SEC-MALS; silica-based column, 10 nm pore size, 10 mM Tris pH 7.4; 1 mg·mL^-1 ΔK122 incubated with MPD for 3 hours; relative peak areas"}, "[4]": {"target": "truncated form of the monomeric type IV pilin from P. aeruginosa strain K122-4 [pilA (Δ1-28); ΔK122] (Pseudomonas aeruginosa strain K122-4)", "assay": "SEC-MALS; silica-based column, 10 nm pore size, 10 mM Tris pH 7.4; 1 mg·mL^-1 ΔK122 before incubation with MPD; monomer to dimer"}, "[5]": {"target": "truncated form of the monomeric type IV pilin from P. aeruginosa strain K122-4 [pilA (Δ1-28); ΔK122] (Pseudomonas aeruginosa strain K122-4)", "assay": "SEC-MALS; MALS of the SEC-separated Peak 3/4 aliquot of 15 mg·mL^-1 ΔK122 after 24 hours incubation with MPD; signal overload at the detector noted"}}, "note": "“And” between values parts separate entries of the source, which are not always exact repeats. Identical values can stand only once."}
{"substance": "truncated form of the monomeric type IV pilin from P. aeruginosa strain K122-4 [pilA (Δ1-28); ΔK122] (domain or fragment)", "values": [{"measurement": "stoichiometry N", "setting": "[1]", "result": "14 and 20 and 40"}, {"measurement": "percent of total protein in the higher molecular weight peaks (72 hours with MPD)", "setting": "[2]", "result": 90, "unit": "%"}, {"measurement": "percent of total species in the higher molecular weight peaks (3 hours with MPD)", "setting": "[3]", "result": 55.1, "unit": "%"}, {"measurement": "percent of total species in the higher molecular weight peaks (before MPD)", "setting": "[4]", "result": 17.5, "unit": "%"}, {"measurement": "stoichiometry N", "setting": "[4]", "result": 2}, {"measurement": "stoichiometry N", "setting": "[5]", "result": 4040}]}
